Experimental data reported in the Human Domainome abundance scans (Beltran et al. 2025).

B1: Far upstream element-binding protein 3, residues 75 to 150; numbered along this chain, Q96I24 (parent)
chain: RTVITEEFKVPDKMVGFIIGRGGEQISRIQAESGCKIQIASESSGIPERPCVLTGTPESIEQAKRLLGQIVDRCRN

Variants of: B1
Assay: abundance fitness (aPCA) (normalised: wild type 0, dead -1); higher = more abundant; growth selection in yeast, the domain comes from the species named
Conditions: Homo sapiens

Abundance fitness of substitutions, site by site:
A63: N -1.25; I -0.457; G -0.065; P -0.986; F -0.427; T -0.412; E -0.831; Q -0.907; R -1.22; H -0.911; Y -1.59; S -0.401; W -1.25; L -0.746; K -0.968; M -0.292
I70: A 0.05; F -0.044; D -0.209; V 0.024; W -0.102; S -0.055; T 0.014; N -0.261; Q -0.064; P -0.335; Y 0.044; M -0.013; C -0.023; R -0.024; H -0.096; E -0.004; G -0.205; L -0.035; K -0.138
V71: D -0.159; P -0.198; M -0.013; F -0.099; A -0.117; W -0.175; L -0.092; H -0.21; Y -0.047; R -0.151; K -0.132; G -0.105; S -0.118; N -0.072; Q -0.048; E -0.073; T -0.026; I -0.018
E58: M -0.128; T -0.003; P -0.108; S -0.05; F -0.124; R -0.086; N -0.091; Q -0.066; V -0.107; G -0.047; D -0.054; L -0.17; H -0.226; K 0.045; I -0.256; W -0.161; A -0.025
R73: T 0.019; C -0.157; F -0.103; V -0.037; E 0.043; S -0.04; I -0.136; L -0.104; N 0.037; M -0.048; G 0.054; Y -0.151; D 0.047; W -0.089; P -0.001
L66: I -0.056; H -0.148; G -0.134; K -0.066; P -0.899; S -0.064; Q -0.072; D -0.123; A -0.036; C -0.114; E -0.079; R -0.061; W -0.17; N -0.221; Y -0.078; V -0.115; M -0.038; F -0.16
R75: C -0.124; H -0.006; G 0.038; A 0.064; D -0.082; I -0.107; E 0.047; F 0.003
S59: H -0.221; Y -0.675; M -0.152; F -1.1; W -0.999; K -0.161; V -0.284; N -0.013; T -0.119; D -0.1; L -0.797; I -0.621; Q -0.014; C -0.146; G -0.065; R -0.141; A -0.045; P -0.866; E -0.04
K64: L -0.491; G -0.658; I -0.275; S -0.416; Q -0.197; V -0.35; F -0.801; E -0.388; R -0.095; M -0.336; W -0.578; H -0.421; P -1.14; D -0.89; C -0.453; Y -0.505; T -0.285; A -0.429
I60: E -0.877; Q -0.806; D -0.972; H -0.631; M -0.343; Y -1; F -0.754; A -0.542; N -0.182; K -0.767; C -0.088; P -1.1; L -0.119; T -0.223; W -0.995; V -0.025; R -0.21; G -0.988; S -0.836
